Test results: article PMC5725494, “Cell cycle-dependent phosphorylation regulates RECQL4 pathway choice and ubiquitination in DNA double-strand break repair”
Where a chain is given by its changes, count along the chain named.

What was measured:
Assay in all cases: EMSA; 25 or 50 nM protein, 0.5 nM DNA; 5 mM MnCl2, no ATP; 25 mM HEPES pH 7.4, 5 mM MnCl2, 1 mM DTT, 100 ng/mL BSA, 5% glycerol, no ATP; 10 min at 37 °C; 10% native PAGE
Settings in all cases: protein: recombinant; tags: 3xFLAG; label: 5'-32P on Mix3-19 (S13); fork: 19 bp duplex with 5' T15 arm (strand 1) and 3' T15 arm (strand 2)
RECQL4 RQ4-2A = target: T1, RECQL4 RQ4-2A (UniProt O94761 1-1208, S89A;S251A)
T1 sequence: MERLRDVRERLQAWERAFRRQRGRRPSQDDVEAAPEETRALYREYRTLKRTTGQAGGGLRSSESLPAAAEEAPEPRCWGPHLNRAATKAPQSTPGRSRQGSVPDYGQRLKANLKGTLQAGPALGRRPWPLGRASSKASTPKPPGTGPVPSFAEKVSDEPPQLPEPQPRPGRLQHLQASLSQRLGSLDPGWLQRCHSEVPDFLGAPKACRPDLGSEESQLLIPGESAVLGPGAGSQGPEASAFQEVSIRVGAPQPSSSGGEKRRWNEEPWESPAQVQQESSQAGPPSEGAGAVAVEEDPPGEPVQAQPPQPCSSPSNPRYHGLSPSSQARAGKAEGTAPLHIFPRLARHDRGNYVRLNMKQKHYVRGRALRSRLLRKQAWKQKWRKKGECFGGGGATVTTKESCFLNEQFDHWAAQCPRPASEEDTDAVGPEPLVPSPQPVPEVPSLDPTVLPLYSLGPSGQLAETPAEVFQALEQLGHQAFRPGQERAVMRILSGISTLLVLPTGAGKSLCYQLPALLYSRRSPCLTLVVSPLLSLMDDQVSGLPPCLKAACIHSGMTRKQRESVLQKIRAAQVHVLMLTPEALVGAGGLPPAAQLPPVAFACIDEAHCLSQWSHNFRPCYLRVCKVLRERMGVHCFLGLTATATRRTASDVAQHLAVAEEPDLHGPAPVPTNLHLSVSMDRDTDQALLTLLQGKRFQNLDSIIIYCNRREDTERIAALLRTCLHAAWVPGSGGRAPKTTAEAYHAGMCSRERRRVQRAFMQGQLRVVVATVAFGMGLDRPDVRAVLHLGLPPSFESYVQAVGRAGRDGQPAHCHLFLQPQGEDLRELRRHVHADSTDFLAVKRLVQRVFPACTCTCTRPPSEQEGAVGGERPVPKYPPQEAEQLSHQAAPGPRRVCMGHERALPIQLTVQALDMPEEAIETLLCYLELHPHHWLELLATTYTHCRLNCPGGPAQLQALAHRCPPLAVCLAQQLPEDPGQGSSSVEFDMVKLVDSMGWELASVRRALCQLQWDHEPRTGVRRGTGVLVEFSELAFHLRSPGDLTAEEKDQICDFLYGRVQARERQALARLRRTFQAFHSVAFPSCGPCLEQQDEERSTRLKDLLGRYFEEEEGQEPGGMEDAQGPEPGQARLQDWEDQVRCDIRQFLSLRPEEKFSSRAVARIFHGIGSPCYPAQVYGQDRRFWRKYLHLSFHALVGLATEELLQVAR

RECQL4 RQ4-2D = target: T2, RECQL4 RQ4-2D (UniProt O94761 1-1208, S89D;S251D)
T2 sequence: T1 sequence with A89D, A251D

RECQL4 WT (RQ4Wt) = target: T3, RECQL4 WT (RQ4Wt) (UniProt O94761 1-1208)
T3 sequence: T1 sequence with A89S, A251S

Measured: binding signal

B1: Mix3/4-19 Y-shaped duplex (dsDNA)
DNA 1: TTTTTTTTTTTTTTTGAGTGTGGTGTACATGCAC
DNA 2: GTGCATGTACACCACACTCTTTTTTTTTTTTTTT
~40 % DNA shifted: all assays above
